Results on two molecules are retold here after PMC3020921 (Molecular Biology of the Cell, 2011).

The target of data set [1] is Flag-tagged Nemo-like kinase (NLK), wild type. Put plainly: SEC. (In gel filtration, larger molecules generally elute earlier.)
The data set “SEC” deals with the molecule itself. In words: SEC.

A word on the stoichiometry N: it is the number of molecules, sites or subunits per partner or assembly. Molecule “Flag-tagged Nemo-like kinase (NLK), wild type (enzyme)” gave a stoichiometry N in data set [1] of 2.

B1: endogenous NLK protein of PC12 cells (enzyme, rat (endogenous in PC12), UniProt D3ZSZ3 1-527, looked up)
chain: MSLCGTRANAKMMAAYNGGTSAAAAGHHHHHHHHLPHLPPPHLHHHHHPQHHLHPGSAAAVHPVQQHTSSAAAAAAAAAAAAAMLNPGQQQPYFPSPAPGQAPGPAAAAPAQVQAAAAATVKAHHHQHSHHPQQQLDIEPDRPIGYGAFGVVWSVTDPRDGKRVALKKMPNVFQNLVSCKRVFRELKMLCFFKHDNVLSALDILQPPHIDYFEEIYVVTELMQSDLHKIIVSPQPLSSDHVKVFLYQILRGLKYLHSAGILHRDIKPGNLLVNSNCVLKICDFGLARVEELDESRHMTQEVVTQYYRAPEILMGSRHYSNAIDIWSVGCIFAELLGRRILFQAQSPIQQLDLITDLLGTPSLEAMRTACEGAKAHILRGPHKQPSLPVLYTLSSQATHEAVHLLCRMLVFDPSKRISAKDALAHPYLDEGRLRYHTCMCKCCFSTSTGRVYTSDFEPVTNPKFDDTFEKNLSSVRQVKEIIHQFILEQQKGNRVPLCINPQSAAFKSFISSTVAQPSEMPPSPLVWE
As for B1, the “stoichiometry N” value in the data set “SEC” came out at 2.
